Patent US20120237528A1 (Janssen / Centocor, published 2012)
Each block holds one binder with its values, some of them ahead of it.

What was measured:
[1] = target: Innovin, lyophilized recombinant human tissue factor combined with phospholipids (human, UniProt P13726 33-295, limits assumed); experiment: cell-based or functional assay
[2] = target: T1, recombinant extracellular domain (ECD) of human TF, amino acid 1-219 of the mature chain, C-terminal His6-tag (human, UniProt P13726 33-251); experiment: Biacore
T1 construct: expressed in a mammalian system; used for ELISA and Biacore; biotinylated by NHS-ester for the Fab ELISA; also called His6-TF-ECD1-219; HumanTF1-219

[3] = target: endogenous human tissue factor on MDA-MB-231 breast cancer cells (human, UniProt P13726 33-295); experiment: cell-based or functional assay
[4] = target: T1, recombinant extracellular domain (ECD) …; experiment: direct ELISA, 50 ng/ml

T½ Max (seconds), coagulation of human plasma [1]: 196 s
Kd [2]: 540 pM
koff [2]: 3.7e-05 s⁻¹
kon [2]: 69000 M⁻¹ s⁻¹
% IL-8 Inhibition [3]: 71.2%
B1: M37 (antibody, V domains shown)
VH: QVQLVQSGAEVKKPGSSVKVSCKASGYTFITYWIEWVRQAPGQGLEWMGDILPGSGSTNYNENFKGRVTITADESTSTAYMELSSLRSEDTAVYYCARSGYYGNSGFAYWGQGTLVTVSS
VL: DIVMTQSPDSLAVSLGERATINCKSSQSLLSSGNQKNYLTWYQQKPGQPPKLLIYWASTRESGVPDRFSGSGSGTDFTLTISSLQAEDVAVYYCQNDYTYPLTFGQGTKLEIK
notes: complete MAb; FR4 is its own entry; also called H19/L2

binding result [4]: binds
B2: M72 (antibody, V domains shown)
VH: EVQLVQSGAEVKKPGATVKISCKVSGYTFITYWIEWVQQAPGKGLEWMGDILPGSGSTNYAEKFQGRVTITADTSTDTAYMELSSLRSEDTAVYYCATSGYYGNSGFAYWGQGTLVTVSS
VL: DIVMTQSPDSLAVSLGERATINCKSSQSLLSSGNQKNYLTWYQQKPGQPPKLLIYWASTRESGVPDRFSGSGSGTDFTLTISSLQAEDVAVYYCQNDYTYPLTFGQGTKLEIK
notes: complete MAb; FR4 is its own entry; also called H24/L2

T½ Max (seconds), coagulation of human plasma [1]: 191 s
% IL-8 Inhibition [3]: 93.9%
B3: murine antibody 10H10 (antibody, V domains shown)
VH: QVHLQQSGAELMKPGASVKISCKASGYTFITYWIEWVKQRPGHGLEWIGDILPGSGSTNYNENFKGKATFTADSSSNTAYMQLSSLTSEDSAVYYCARSGYYGNSGFAYWGQGTLVTVSA
VL: DIVMTQSPSSLTVTAGEKVTMSCKSSQSLLSSGNQKNYLTWYQQIPGQPPKLLIYWASTRESGVPDRFTGSGSGTDFTLTINSVQAEDLAVYYCQNDYTYPLTFGAGTKLELK

binding result [4]: binds
B4: M73 (antibody, V domains shown)
VH: EVQLVQSGAEVKKPGATVKISCKVSGYTFITYWIEWVQQAPGKGLEWMGDILPGSGSTNYAEKFQGRVTITADTSTDTAYMELSSLRSEDTAVYYCATSGYYGNSGFAYWGQGTLVTVSS
VL: DIVMTQTPLSLPVTPGEPASISCKSSQSLLSSGNQKNYLTWYLQKPGQSPQLLIYWASTRESGVPDRFSGSGSGTDFTLKISRVEAEDVGVYYCQNDYTYPLTFGQGTKLEIK
notes: complete MAb; FR4 is its own entry; also called H24/L3

binding result [4]: binds
B5: M74 (antibody, V domains shown)
VH: EVQLVQSGAEVKKPGATVKISCKVSGYTFITYWIEWVQQAPGKGLEWMGDILPGSGSTNYAEKFQGRVTITADTSTDTAYMELSSLRSEDTAVYYCATSGYYGNSGFAYWGQGTLVTVSS
VL: DIVMTQSPLSLPVTPGEPASISCKSSQSLLSSGNQKNYLTWYLQKPGQSPQLLIYWASTRESGVPDRFSGSGSGTDFTLKISRVEAEDVGVYYCQNDYTYPLTFGQGTKLEIK
notes: complete MAb; FR4 is its own entry; also called H24/L4

binding result [4]: binds
B6: M77 (antibody, V domains shown)
VH: EVQLVQSGAEVKKPGATVKISCKVSGYTFITYWIEWVQQAPGKGLEWMGDILPGSGSTNYAEKFQGRVTITADTSTDTAYMELSSLRSEDTAVYYCATSGYYGNSGFAYWGQGTLVTVSS
VL: DIVMTQTPLSSPVTLGQPASISCKSSQSLLSSGNQKNYLTWLQQRPGQPPRLLIYWASTRESGVPDRFSGSGAGTDFTLKISRVEAEDVGVYYCQNDYTYPLTFGQGTKLEIK
notes: complete MAb; FR4 is its own entry; also called H24/L7

binding result [4]: binds
B7: M75 (antibody, V domains shown)
VH: EVQLVQSGAEVKKPGATVKISCKVSGYTFITYWIEWVQQAPGKGLEWMGDILPGSGSTNYAEKFQGRVTITADTSTDTAYMELSSLRSEDTAVYYCATSGYYGNSGFAYWGQGTLVTVSS
VL: DIVMTQTPLSLSVTPGQPASISCKSSQSLLSSGNQKNYLTWYLQKPGQPPQLLIYWASTRESGVPDRFSGSGSGTDFTLKISRVEAEDVGVYYCQNDYTYPLTFGQGTKLEIK
notes: complete MAb; FR4 is its own entry; also called H24/L5

binding result [4]: binds
B8: M14 (antibody, V domains shown)
VH: EVQLVQSGAEVKKPGESLRISCKGSGYTFITYWIEWVRQMPGKGLEWMGDILPGSGSTNYNENFKGHVTISADKSISTAYLQWSSLKASDTAMYYCARSGYYGNSGFAYWGQGTLVTVSS
VL: DIVMTQTPLSSPVTLGQPASISCKSSQSLLSSGNQKNYLTWLQQRPGQPPRLLIYWASTRESGVPDRFSGSGAGTDFTLKISRVEAEDVGVYYCQNDYTYPLTFGQGTKLEIK
notes: complete MAb; FR4 is its own entry; also called H15/L7
